{"source": "the DeepSol protein solubility set"}
{"assay": "soluble on expression in E. coli; label from the status in PepcDB or PDB records"}
{"sequence": "MDYKVSRSGEIVEGEVEDSEKIDLPPGFRFHPTDEELITHYLRPKVVNSFFSAIAIGEVDLNKVEPWDLPWKAKLGEKEWYFFCVRDRKYPTGLRTNRATKAGYWKATGKDKEIFKGKSLVGMKKTLVFYKGRAPKGVKTNWVMHEYRLEGKFAIDNLSKTAKNECVISRVFHTRTDGTKEHMSVGLPPLMDSSPYLKSRGQDSLAGTTLGGLLSHVTYFSDQTTDDKSLVADFKTTMFGSGSTNFLPNIGSLLDFDPLFLQNNSSVLKMLLDNEETQFKKNLHNSGSSESELTASSWQGHNSYGSTGPVNLDCVWKF", "soluble on expression in E. coli": "soluble"}
{"sequence": "MVMTVRVIAPDKTVWDAPAEEVILPSTTGQLGILSNHAPLLTALETGVMRVRQDREWVAIALMGGFAEVENNEVTILVNGAERGDTIDPQEAQQTLEIAEANLRKAEGARQKIEANLALRRARTRVEASNTISS", "soluble on expression in E. coli": "soluble"}
{"sequence": "TLEPTQSVQNYMIQADSTEGSLQNDWLIMATKAAIQANQLDQADLLIKRLARQQLTEVQQAEWQLARATIQQKQGDYSQLLQLLNFKPWWKLPNEQWKDYYSLRADAYQSLNQPFEANRQLVAFSQYASSAEQREISSRIWMNFGSYSEYELTSLQTEPSEDVLDGWLQLAVYAKTLSGNLSQLKNTLERWLNENPSHPAAIYTPEEIQNILSLDIVKPNNTALLLPLTGKFAPQAQLIRDGFVFAMMNDRNRDPSATLTVIDTNAYSADEVKQRLINENIDFVVGPLQKENVELLQTTMDGSANSPAIPALALNIPEDVQPGTDICYLALSPEQEVAQAAKYLFSEGYSFPLILAPKGSYGERVVQAFNEEWSKYSSNKVATSYFGDKRQLQKDINDVFGLQESKQRIAQMQSLMRIKLETQPRSRRDVDAVYIVARSSELTLIKPFIEVAINPDAKPPKLFSNSRSNSGGATYEDLTGIIYSDIPLLVNPDPIVTAEMNELWADQSNMEKRLKALGMDAYKLIGELPQMKVVPGYSVSGQTGTLSIDNNCVVQRELSWAERGAL", "soluble on expression in E. coli": "not soluble"}
{"sequence": "MAYKYDRDLEFLKQLESSDLLDLFEVLVFGKDGEKRHNEKLTSSIEYKRHGDDYAKYAERIAEELQYYGSNSFASFIKGEGVLYKEILCDVCDKLKVNYNKKTETTLIEQNMLSKILERSLEEMDDEEVKEMCDELSIKNTDNLNRQALSAATLTLFKMGGFKSYQLAVIVANAVAKTILGRGLSLAGNQVLTRTLSFLTGPVGWIITGVWTAIDIAGPAYRVTIPACIVVATLRLKTQQANGDKKSLQIESI", "soluble on expression in E. coli": "not soluble"}
{"sequence": "MSQARPATVLGAMEMGRRMDVTSSSASVRAFLQRGHTEIDTAFVYANGQSETILGDLGLGLGRSGCKVKIATKAAPMFGKTLKPADVRFQLETSLKRLQCPRVDLFYLHFPDHGTPIEETLQACHQLHQEGKFVELGLSNYVSWEVAEICTLCKKNGWIMPTVYQGMYNAITRQVETELFPCLRHFGLRFYAFNPLAGGLLTGRYKYQDKDGKNPESRFFGNPFSQLYMDRDWKEEHFNGIALVEKALKTTYGPTAPSMISAAVRWMYHHSQLKGTQGDAVILGMSSLEQLEQNLALVEEGPLEPAVVDAFDQAWNLVAHECPNYFR", "soluble on expression in E. coli": "soluble"}
{"sequence": "MGSDKIHHHHHHMEEIVLFHTNDLHSHFENWPKIRRLVKAKRSLYQKEGKTVVTIDLGDFSDRCHPLTEATDGRANVAIMNTLAYDLVTIGNNEGIGNSKKQLEHLYDQATFEVVLANLEEPKTQTLPDFCQAYKIMTTKEGTKLGFIGLTAPFPLTYNPNGWTIKQVEAVLPQLITEVAPQCDVLILLSHLGIDTDFMIAANYPEIQVILGSHTHHLFKDGEKINHVQLAAAGKYGQYIGEVHLFVDADTKQVTSYAKTIETASLEEQATDAKEIAGYLTEGHRLLQAQQIAQIPETLSTDLRQPHAFITVALKALKEAGQTEAAVLNNGLFLADLPEGIINADQLHEALPHPMHLIKVTLKGSDMSRLIREMEKSRQFLRKFPIRGMGFRGKIFGELCYDGIRFEPNSQTVFWQGKPIQPEQKYTLTTVDHFQFVPFFPTIELVGEVEFLFPDVLRTVVANYLHAHYPIK", "soluble on expression in E. coli": "not soluble"}
{"sequence": "MSLKAAQYAGNKSFNVVDGAKVPPAEGEVCLQVGYTGICGTDMHIYHGVMDQRVSIPQIIGHEMSGTVVEVGAGVTDYTVGDRVVVRPLDYCGDCPACNAGHSHVCHNLKFMGIDSPGAFQSYWTVKARTLHALPDNVSLKQGALIEPLSVACHDVARTRLQAGEKALVIGGGPIGQLVALVAKSVGAEVMISEVSEARLKFAAERGIKTVNPVTDDIEAVVKEWTGGKGADAVFEVSGVAAAVETMTKVAAVRGRICMVAIHSQKPQVDLFQFFWKELELLGARVYESADFEHAIELVASGKIDVDSFISSVTSLNDIGTAFASMDNNPAGMKALVECNEGHHHHHH", "soluble on expression in E. coli": "soluble"}
{"sequence": "MGYHTFDAGRADKLEDAQERYRSLSAEELCWALSASSDETVADLGSGTGFYTDDVAPAVDHVYAVDIQEAMHDYYRKKGVPDNVDLVTSAVDDLPFDTSSLDAAFSTMTYHEFASDGALREVARVLKPGGTFAIADWAASGSGRNGPPVDERFSAAEATDALRQHGFTVEFEAVRPETFLLVVSADLEHHHHHH", "soluble on expression in E. coli": "soluble"}
{"sequence": "MAAPVDLELKKAFAELQAKMVDTQQKVKLADLQIEQLSRVKKHANLTHGEITSLPESTRMFEGAGRMFILQSKGEISNQLLEKQKTADDKIKELEQKKTYLERSVKDAEDNIREMLMSRRAQ", "soluble on expression in E. coli": "not soluble"}
{"sequence": "MYTHLTDMTNMLDTAKIGTSDGTFPLANAQNLQKAVEELQTGISKGMAGYFVLQYEIDNYCIAAEKAIAEFQDSYQQTLQPGTPAELKVFGIDGKGRIEFGSDPAYGGGNTFTVESWVKYDAGFFESGIGSFLSTFDGKQPNEGWMINFLGSNLRTTIGMGPQEGRVLEEGRAYPDNFGKWNHVVTVWDNTLPEGQLKMYVNGELFFSKTNDVKNDAGVLQNYMPNTRNQNMWAFQEPTDNSRCMTGFIKKFRMWSTAKSANEVKTLMNSDVTGTESGLVCAWDFTTVVEDVTNIPDKTGKHVAKIVGNYKWFKVEN", "soluble on expression in E. coli": "not soluble"}
{"sequence": "STEESMYTRIIKELPREGSSDVLVIKNEHVKKSDIWPSGGEMVVKDLTVKYMDDGNAVLENISFSISPGQRVGLLGRTGSGKSTLLSAFLRMLNIKGDIEIDGVSWNSVTLQEWRKAFGVITQKVFIFSGTFRQNLDPNGKHKDEEINKVADEVGLKSVIEQFPGQLNFTLVDGGYVLSHGHKQLMCLARSVLSKAKIILLDEPSAHLDPITYQVIRRVLKQAFAGCTVILCEHRIEAMLDCQRFLVIEESNVWQYDSLQALLSEKSIFQQAISSSEKMRFFQGRHSSKHKPRTQITALKEETEEEVQETRL", "soluble on expression in E. coli": "soluble"}
{"sequence": "MKQSTIALALLPLLFTPVTKADIELTQSPSSLAVSAGEKVTMSCKSSQSLLNSGNQKNYLAWYQQKPGLPPKLLIYGASTRESGVPDRFTGSGSGTDFTLTISSVQAEDLAVYYCQNDHSYPLTFGAGTKLEIKRTVAAPSVFIFPPSDEQLKSGTASVVCLLNNFYPREAKVQWKVDNALQSGNSQESVTEQDSKDSTYSLSSTLTLSKADYEKHKVYACEVTHQGLSSPVTKSFNRGEC", "soluble on expression in E. coli": "soluble"}
{"sequence": "MGSDKIHHHHHHMKLAVISSIYKNDSLSKIKQSLQSLLNQENVTCDIYLYCDGPVSIDIVHFLDSFDQNSLYIFKQEQNRGLAHALNELLNIVLTKEYEYIARMDADDISMPERFVKQIAFMNSHPDIDCLGTWAIEIDDDGKEYFRKKMPITHEECLELFKKRDCMIHPTVMFRRSYFEKAGLYPEDTYFGEDTMMWAKGFKSGCKFANVPEYLFKFRLDSNFFERRRGWKHAKSIYTLRHRVNRMLGFGWKEDCYALLYAMAKLMPKSILDIIYKTVR", "soluble on expression in E. coli": "not soluble"}
{"sequence": "MSLVDFIDDNRGEFGVEPICTVLRSAGLQVALSTYYDAKARVPSARALRDAVLGPALCQLWKDNYCVYGARKLWKTARRDGHDVGRDQVARLMRAAGIEGVRRGKRVRTTKADPAAARHPDLVHRNFAAAAPNQLWATDLTFVPTWAGVAYVCFIIDAHSRMIVGWRVASHMRTSMVLDALEMARWSRGTTLQDLICHSDAGSQFTSIRYGERLAEIGAVPSIGTVGDSFDNALAETVNGYYKAELIYGPARSRPWKTVEDVELATLSWVHWHNTSRLHSYLGDIPPTEFEAAFYDAYRTDQPLIGIQEGHHHHHH", "soluble on expression in E. coli": "not soluble"}
{"sequence": "MEFRQLRSFVEVVRQGSFTQAAQVRHASQSTISKQVAQLEQSLGVQVLERNGPHVRLTDAGAVVFRRAEEMLRLRRDLLSELDDLSQLNRGELRLGLPLLGADALFAQRFAEYRRRYPNIAVHLVEGGSKTMEQAVLAGELELAGSLTPADDGFDYQPFCNEPLDVLLPAGHPKAAAASVALGELADSPFLLYQQSFTLNDRLLRACLEAGFSPREGGRSGQADFLGALVAANQGVVLLPRVIAREIERPGVVRVLLREPDLRWDIAFIWRRGGYLSRAAQAWLELLREQPLEESPA", "soluble on expression in E. coli": "not soluble"}
{"sequence": "MGSDKIHHHHHHMNQEDDAKLAYLMAVNAIQMTKARYCRFVDTKQWDRLRTLFTADCRFEGLGSAPDRADLDIFIQGISRRLAHVVSVHHCHMGEIELVGADEAKVIWAMEDHLEWQDSGEVVEAPGNRGFRGYGHYEECYVRQGDTWKISLLRLTRLGIHPIPDAQPRLGTGRLGANPDWLPSDRRLR", "soluble on expression in E. coli": "not soluble"}
{"sequence": "MTGNSFNSMKDFLKQTGGYAVIDGGLATEFERHGADLNDPLWSAKCLVTSPHLIHTVHLDYLEAGADIISSASYQATIQGFEAKGFSREESESLLKKSVEIATEARNSYYDKCGTSSSMDDKILKKRPILVAASVGSYGAYLADGSEYSGIYGDSITLEKLKDFHRRRLQVLAESGADLIAFETIPNKIEAQAFADLLEEGDVKIPGWFSFNSKDGVNVVSGDSIKECISIAENCEKVVAVGINCTPPRFIEGLVLEIEKVTSKPILVYPNSGESYDADRKEWVENTGVGDEDFVSYVEKWMDAGVSLLGGCCRTTPTTIRAIHKRLVNRRSL", "soluble on expression in E. coli": "soluble"}
{"sequence": "MAHHHHHHMHECKDDRVLEKIQQINGYENIKLGDKKVLCDEIWTVTRCDKKFSYWIRYYEEDKNGYSLSVLPTQLKNIYYFLKYYYF", "soluble on expression in E. coli": "not soluble"}
{"sequence": "MSLSDNDLQRRILDAVDAGFDAQLATTRDFVAIPSTRGAEGPCQDMIGDLLRQRGYEVDDWHIDLDDLKDLRGYGPIEHDFSKARTVVGTYRPSTNAGRSLILQGHCDVVPAGPLEMWDTPPFSPVIKQGRMYGRGACDMKSGTIGALYALDAIKAAGLRPTGRIHFQSVIEEESTGVGALSTLQRGYRADACFIPEPTGGKMVRSQVGVIWFRLKVRGYPVHVATAGTGSNAITAAYHLIDALGKLEEEWNRRAASDPHFKTLAHPINFNPGIIKGGDWASSVPAWCDVDCRIAILPGWSVADHQAEILACVSAAARDHRFLSNNPPQVEWSGFLSEGYELKNAAEPEAAFGKAYQAVYGSEVEDLVFTALTDTRFYGLNYNIPSLCFGASGEAMHGFNEYIDLESLRQSTKATALFIAEWCGVEPAEGHHHHHH", "soluble on expression in E. coli": "soluble"}
{"sequence": "SVFKFIDLPQEEPRPSGGGKVTDLVLDNPHAQDCWPNQGHMDVQGLTVKYTEAGRSVLQNLSFTVEAGQSVGVLGRTGSGKSTLLSALLRLASTDGEISIDGVSWNSVTLQTWRKAFGVVPQKIFILTGTFRMNLDPHACHSDEELWRVAEEVGLKSVIEQFPDKLDFQLEDGGYVLSNGHKQLMCLARSILSKARILLLDEPSAYLDPITLQVLRKTLKQSFSNCTVILSEHRVEPLLECQSFLMIEGSSMKRYDSIQKLLNETSHLKQAISAAERLKLFPLHRLNSSKRPPQSQQPKITALQEEAEDEVQDTRL", "soluble on expression in E. coli": "not soluble"}
